Data taken from patent US20260049134A1 (UNIVERSITY OF FLORIDA RESEARCH FOUNDATION, published 2026).

T1: HHLA2 (B7-H7)
T1 construct: coated protein in the ELISA; also called HHLA2-Fc (R&D Systems)
T1 chain: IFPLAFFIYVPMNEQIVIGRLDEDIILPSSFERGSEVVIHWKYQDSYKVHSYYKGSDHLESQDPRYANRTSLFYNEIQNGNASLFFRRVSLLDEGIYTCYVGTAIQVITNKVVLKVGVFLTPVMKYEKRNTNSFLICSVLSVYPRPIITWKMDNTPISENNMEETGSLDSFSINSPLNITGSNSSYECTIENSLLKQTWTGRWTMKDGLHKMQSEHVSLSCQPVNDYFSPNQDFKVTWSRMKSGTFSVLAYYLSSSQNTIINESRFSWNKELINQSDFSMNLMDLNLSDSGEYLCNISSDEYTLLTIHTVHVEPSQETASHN

T2: CADM1-His (Acro Biosystems) (human, UniProt Q9BY67 45-374)
T2 construct: Bought; also called CADM1/IGSF4A; not shown: His tag of the bought protein
T2 sequence: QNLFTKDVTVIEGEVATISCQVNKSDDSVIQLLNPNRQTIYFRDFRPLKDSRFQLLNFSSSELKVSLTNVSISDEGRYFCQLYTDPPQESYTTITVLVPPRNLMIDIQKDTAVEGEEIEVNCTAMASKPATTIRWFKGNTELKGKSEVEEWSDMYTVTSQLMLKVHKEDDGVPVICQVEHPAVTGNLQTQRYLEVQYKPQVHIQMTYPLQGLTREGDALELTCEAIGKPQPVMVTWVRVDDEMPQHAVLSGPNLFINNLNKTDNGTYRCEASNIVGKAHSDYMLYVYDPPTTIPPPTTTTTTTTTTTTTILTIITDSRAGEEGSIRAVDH

T3: IL13RA1
T3 construct: coated protein in the ELISA; also called IL13RA1-Fc-His (R&D Systems)
T3 chain: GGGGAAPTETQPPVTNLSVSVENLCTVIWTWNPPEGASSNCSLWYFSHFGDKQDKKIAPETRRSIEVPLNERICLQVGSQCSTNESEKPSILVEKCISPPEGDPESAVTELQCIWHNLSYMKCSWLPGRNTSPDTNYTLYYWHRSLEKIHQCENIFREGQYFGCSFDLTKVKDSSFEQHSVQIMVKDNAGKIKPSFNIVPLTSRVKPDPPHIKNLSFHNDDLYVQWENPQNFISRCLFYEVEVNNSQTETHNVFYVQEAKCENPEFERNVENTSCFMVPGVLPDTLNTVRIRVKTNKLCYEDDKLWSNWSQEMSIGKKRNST

T4: IGSF11 (VSIG3)
T4 construct: coated protein in the ELISA; also called IGSF11-Fc (R&D Systems)
T4 chain: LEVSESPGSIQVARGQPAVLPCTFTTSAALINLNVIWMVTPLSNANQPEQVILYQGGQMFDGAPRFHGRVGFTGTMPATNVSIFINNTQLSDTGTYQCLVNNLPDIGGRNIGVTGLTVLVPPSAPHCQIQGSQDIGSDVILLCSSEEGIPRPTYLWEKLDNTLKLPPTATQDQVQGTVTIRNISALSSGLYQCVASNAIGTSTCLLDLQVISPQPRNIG

T5: GARS-His (Sino Biological) (human, UniProt P41250 37-739, limits assumed)
T5 construct: Bought; also called GARS1; glycyl-tRNA synthetase; not shown: His tag of the bought protein
T5 sequence: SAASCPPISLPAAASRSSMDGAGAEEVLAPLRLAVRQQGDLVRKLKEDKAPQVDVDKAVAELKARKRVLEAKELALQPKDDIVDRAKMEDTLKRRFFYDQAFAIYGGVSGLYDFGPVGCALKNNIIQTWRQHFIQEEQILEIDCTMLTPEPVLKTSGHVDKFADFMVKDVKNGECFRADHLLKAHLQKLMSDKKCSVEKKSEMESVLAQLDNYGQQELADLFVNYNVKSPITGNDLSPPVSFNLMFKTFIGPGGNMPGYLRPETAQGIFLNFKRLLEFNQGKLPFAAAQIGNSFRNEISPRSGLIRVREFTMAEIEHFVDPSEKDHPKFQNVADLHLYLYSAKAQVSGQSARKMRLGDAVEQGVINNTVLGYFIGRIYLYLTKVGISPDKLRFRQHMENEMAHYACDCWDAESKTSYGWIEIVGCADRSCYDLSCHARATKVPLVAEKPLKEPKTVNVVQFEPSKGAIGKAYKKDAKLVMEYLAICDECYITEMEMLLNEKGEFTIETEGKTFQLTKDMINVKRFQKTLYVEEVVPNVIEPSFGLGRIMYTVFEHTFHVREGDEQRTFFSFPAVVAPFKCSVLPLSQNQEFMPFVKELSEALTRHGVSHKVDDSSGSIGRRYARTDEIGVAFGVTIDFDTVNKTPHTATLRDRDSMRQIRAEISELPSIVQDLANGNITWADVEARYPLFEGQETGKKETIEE


Key:
[1] = target: T1, HHLA2 (B7-H7); test: ELISA on coated HHLA2-Fc
Experimental: (§1) Recombinant purified ECDs (50-150 ng) of each putative target protein were coated, incubated with 150 ng of the indicated primary antibody, and binding was detected using a peroxidase-conjugated anti-human Fab secondary antibody. Heatmap represents averages of technical triplicates. (8B) Target validation via siRNA knockdown. H929 cells were transfected with siRNA pools targeting the putative antibody targets ICAM1, CADM1, and PTPRG. Cells were then subjected to cognate IgG binding analysis via flow cytometry. (NT, non-targeting siRNA).
(§2) ELISA ELISA was conducted as described previously. Briefly, 50-150 ng of antigen was coated overnight in half-area 96-well plates at 4° C., blocked with 3% BSA at 37° C. for 1 h, and 150 ng of chimeric rabbit/human IgG1 was added, incubating for 2 h at 37° C. […] After incubating at 37° C. for 15 min-1 h (depending on intensity of controls), data were acquired using a SpectraMax M5 plate reader (Molecular Devices).

[2] = target: T2, CADM1-His (Acro Biosystems); test: ELISA on coated CADM1-His, 150 ng IgG1; None 0.059
Experimental: as §1, §2

[3] = target: T6, APP; test: ELISA on coated APP-His, 150 ng IgG1; None 0.092
T6 construct: His-tagged; coated protein in the ELISA; also called APP-His (Acro Biosystems)
Experimental: as §1, §2

[4] = target: T3, IL13RA1; test: ELISA on coated IL13RA1-Fc-His, 150 ng IgG1; None 0.094
Experimental: as §1, §2

[5] = target: T4, IGSF11 (VSIG3); test: ELISA on coated IGSF11-Fc, 150 ng IgG1; None 0.090
Experimental: as §1, §2

[6] = target: T5, GARS-His (Sino Biological); test: ELISA on coated GARS-His, 150 ng IgG1; None 0.099
Experimental: as §1, §2

| Binder | binding result [1] | ELISA Absorbance (405 nm-570 nm) [2] | ELISA Absorbance (405 nm-570 nm) [3] | ELISA Absorbance (405 nm-570 nm) [4] | ELISA Absorbance (405 nm-570 nm) [5] | ELISA Absorbance (405 nm-570 nm) [6] |
| --- | --- | --- | --- | --- | --- | --- |
| TH9-0022 (antibody, human IgG1, kappa, L234A L235A, V domains shown, also called TH9-022; negative control) VH: QSLEESGGRLVTPGTPLTLTCTVSGFSLSSYAMNWVRQAPGKGLEWIGIINSYGSTYYASWAKGRFTISKTSTTVDLKITSPTTEDTATYFCARVTYDSYGYGYAPYGMDLWGPGTLVTVSS VL: LVMTQTPSSTSNAVGGTVTIKCQASQSIGNVLAWYQQKPGQPPKLLIYAASTLASGVPSRVGGSRSGTEYTLTISGVQREDAATYYCLGSDSDSDIAFGGGTELEILR | no binding (tested: 150 ng IgG1 per well) | 0.055 | 0.082 | 0.08 | 0.08 | 0.098 |
| HW-8 chimeric rabbit-human IgG1 LA/LA/PG (antibody, V domains shown, Fc-silenced (L234A/L235A/P329G) IgG1, kappa; Alexa Fluor 647-labeled in single-step flow cytometry; Cluster C-45) VH: QSLEESGGRLVTPGTPLTLTCTVSGFSLSSYAMSWVRQAPGKGLEWIGAISTGGSTTYASWAKGRFTISKTSSTTVDLKMTSLTTEDTATYFCVRHFRLWGPGTLVTISS VL: QVLTQTPSSVSAAVGGTVTIKCQASQSIGSALAWFQQKPGQRPKLLIYRASNLASGVPSRFKGSGSGTEFALTISGVQREDAATYYCLGGAAAVWAFGAGTNVEIKR | no binding (tested: 150 ng IgG1 per well) | 0.05 | 0.071 | 0.077 | 0.069 | 0.081 |
| HW-42 chimeric rabbit-human IgG1 LA/LA/PG (antibody, V domains shown, Fc-silenced (L234A/L235A/P329G) IgG1, lambda; Alexa Fluor 647-labeled in single-step flow cytometry; Cluster C-1) VH: QSVKESEGGLFKPADTLTLTCTVSGFSLSSNEISWVRQAPGEGLEYIGIIDTGGRAYYAVWARSRSTITRNTNLNTVTLKMTSLTAADTATYFCARGGVDTEWYAFSSWGPGTLVTVPS VL: SFVLTQPASVQVNLGQTVSLTCTADTLSRRYASWYQQKPGQAPVLLIFRDTSRPSGVPDRFSGSSSGDTATLTISGAQAGDEADYYCATSDGSGSNYQYVFGGGTQLTVTG | no binding (tested: 150 ng IgG1 per well) | 0.061 | 0.087 | 0.102 | 0.088 | 0.099 |
| HW-28 chimeric rabbit-human IgG1 LA/LA/PG (antibody, V domains shown, Fc-silenced (L234A/L235A/P329G) IgG1, lambda; Alexa Fluor 647-labeled in single-step flow cytometry; Cluster C-45) VH: QKQLVESGGRLVTPGTPLTLTCTASGFSLSSNAMSWVRQAPGEGLQWIGTISSGGSTYYASWAKGRFTISKTSTTVTLKMTSLTTEDTATYFCARGADLHRLWGPGTLVTVSS VL: SFVLTQPASVQVNLGQTVSLTCTGKPLSRSFASWYQQKPGQAPVLVIYRDTSRPSGVPDRFSGSSSGNTATLTISGAQAGDEADYYCATSDGSGSSYQYVFGGGTQLTVTG |  |  | 0.144 |  | 0.11 | 0.628 |
| HW-25 chimeric rabbit-human IgG1 LA/LA/PG (antibody, V domains shown, Fc-silenced (L234A/L235A/P329G) IgG1, lambda; Alexa Fluor 647-labeled in single-step flow cytometry; Cluster C-1) VH: QSLEESGGRLVTPGTPLTLTCTVSGFSLSSYAMGWVRQAPGKGLEWIGIIDSRGSTYYATWAKGRFTISKTSTTVDLKITSPTTEDTATYFCAREDSYYYDSFNLWGPGTLVTVSS VL: SFVLTQPASVQVNLGQTVSLTCTADTLSRRYASWYQQKPGQAPVLLIYRDTSRPSGVPDRFSGSSSGNTATLTISGAQAGDEADYYCATSDGSGSSYQCVFGGGTQLTVTG | no binding (tested: 150 ng IgG1 per well) | 0.045 | 0.066 | 0.074 | 0.07 | 0.103 |
| HW-45 chimeric rabbit-human IgG1 LA/LA/PG (antibody, V domains shown, Fc-silenced (L234A/L235A/P329G) IgG1, lambda; Alexa Fluor 647-labeled in single-step flow cytometry; Prototype of cluster C-45) VH: QKQLVESGGRLVTPGTPLTLTCTVSGFSLSSYAMGWFRQAPGKGLEWIGIINSYGSTYYASWAKGRFTISKTSTTVDLKITSPTTEDTATYFCGRRIGSARFDPWGPGTLVTVSS VL: SFVLTQPASVQVNLGQTVSLTCTADTLSRSYASWYQQKPGQAPVLLIYRDTRRPSGVPDRFSGSSSGNTATLTISGAQAGDEADYYCATSDGSGSSYRLVFGGGTQLTVTG |  |  | 0.233 |  |  | 0.741 |
| HW-1 chimeric rabbit-human IgG1 LA/LA/PG (antibody, V domains shown, Fc-silenced (L234A/L235A/P329G) IgG1, lambda; Alexa Fluor 647-labeled in single-step flow cytometry; Prototype of cluster C-1) VH: QSLEESGGGLFKPTDTLTLTCTASGFSLGSSYAISWVRQAPGKELEWIGTIDSGRAYYARWAKSRSTITRNTNENTVTLKMTSLTAADTATYFCARDLIPTYSQDIWGPGTLVTISS VL: SFVLTQPASVQVNLGQTVSLTCTADTLSRRYASWYQQKPGQAPVLLIYRDTSRPSGVPDRFSGSSSGNTATLTISGAQAGDEADYYCATSDGSGNSYQYVFGGGTQLTVTS | no binding (tested: 150 ng IgG1 per well) | 0.053 | 0.071 | 0.08 | 0.074 | 0.091 |
| HW-17 chimeric rabbit-human IgG1 LA/LA/PG (antibody, V domains shown, Fc-silenced (L234A/L235A/P329G) IgG1, lambda; Alexa Fluor 647-labeled in single-step flow cytometry; Cluster C-1) VH: QSLGESRGRLVTPDETLTLTCTVSGIDLSSNAMSWVRQAPGEGLEWIGTINTGGRAYYASWAKGRFTISRTSTTVDLKMTSLTTEDTATYFCARERYSDGRAYDIWGPGTLVTISS VL: SFVLTQPASVQVNLGQTVSLTCTADTLSRRYASWYQQKPGQAPVLLIYTDSNRPSGIPDRFSGSSSGNTATLTISGAQAGDEADYYCATDDGSGSIYQYVFGGGTQLTVTG | no binding (tested: 150 ng IgG1 per well) | 0.048 | 0.062 | 0.073 | 0.094 | 0.074 |
| HW-70 chimeric rabbit-human IgG1 LA/LA/PG (antibody, V domains shown, Fc-silenced (L234A/L235A/P329G) IgG1, lambda; Alexa Fluor 647-labeled in single-step flow cytometry; Cluster C-1) VH: QSLEESGGRLVTPGTPLTLTCTVSGFSLSSNAMSWVRQAPGKGLEWIGTIDGYGYTYYASWAKGRFTVSKTSTTVDLKITSPTTEDTATYFCAREIYLGSNFWGPGTLVTISS VL: SFVLTQPASVQVNLGQTVSLTCTADTLSRRYASWYQQKPGQAPVLLIYRDTSRPSGVPDRFSGSSSGNTATLTISGAQAGDEADYYCATADGSGSSYQFVFGGGTQLTVTG | no binding (tested: 150 ng IgG1 per well) | 0.053 | 0.089 | 0.085 | 0.085 | 0.087 |
